Positions count from the first letter of the chain named. In names and notes the source's numbering stands.
B1: E224A-I283T-N285P-N287T-Q290E-S322T-N388M-S389H-K394R-C430A-i430aG-L432F-L434W-S436N-dG462 (protein)
chain: MFLKSLREQINLLKRQGDLRIINRPVDSYLEAAAIIRRSTETKAPVPLMTNIKGYPGCSIVGGLAALSSNPEYPLSRVAMSLGLSTTASAQSIVQYLIDGLKKTPYLPVEIDSNSAPCKQNILRGEDASLAHFPIPQVHQHDGNRYVNTWGVFIVESPDGQWCNWSIQRVQYLNDRQMIALVFPSQHISDIWEEWVKIGKPMPYALVQGCEPIVPYIAGLPLLARNVNEAEYIGALYGKGIEVVKCETHDLRVPASSEVVIEGYFAITREGVEGPFGEFAGYTPPETSLEPILSITAISWQDDPIWPVVAEGKPVDEYHTCTGIGDAAAIQNVLLTANLPVSFVWVPLYSACHLMIVSINRHWRQTHPDLTSEQLTKKVGDVIHQTRMHIKLPRIVVLDDDVDPADTESLLWALATRIHPERKRYFYESAIFPWLNCYSEEERHNRKGKRVIIDALLPENHGAISSFDYAYPDDIKQRVLMHWETDFSHD
B2: E224P-I283T-N285P-N287T-Q290E-S322T-N388M-S389H-K394R-C430A-i430aG-L432F-L434W-S436N-dG462 (protein)
chain: B1 chain with A224P
B3: I283T-P284D-i284aP-N287P-S322T-Q365I-N388M-E421V-C430N-L432F-L434W-S436N-H461T-dG462-A463T (protein)
chain: MFLKSLREQINLLKRQGDLRIINRPVDSYLEAAAIIRRSTETKAPVPLMTNIKGYPGCSIVGGLAALSSNPEYPLSRVAMSLGLSTTASAQSIVQYLIDGLKKTPYLPVEIDSNSAPCKQNILRGEDASLAHFPIPQVHQHDGNRYVNTWGVFIVESPDGQWCNWSIQRVQYLNDRQMIALVFPSQHISDIWEEWVKIGKPMPYALVQGCEPIVPYIAGLPLLERNVNEAEYIGALYGKGIEVVKCETHDLRVPASSEVVIEGYFAITREGVEGPFGEFAGYTDNEPSLQPILSITAISWQDDPIWPVVAEGKPVDEYHTCTGIGDAAAIQNVLLTANLPVSFVWVPLYSACHLMIVSINRHWRITHPDLTSEQLTKKVGDVIHQTRMSIKLPKIVVLDDDVDPADTESLLWALATRIHPVRKRYFYESNIFPWLNCYSEEERHNRKGKRVIIDALLPENTGTISSFDYAYPDDIKQRVLMHWETDFSHD
B4: I283T-P284D-i284aP-N287P-S322T-N388M-E421V-C430N-L432F-L434W-S436N-G448E-H461T-dG462-A463T (protein)
chain: B3 chain with I365Q, G448E
B5: I283T-P284D-i284aP-N287P-S322T-Q385T-N388M-E421V-C430N-L432F-L434W-S436N-H461T-dG462-A463T (protein)
chain: B3 chain with I365Q, Q385T
B6: I283T-P284D-i284aP-N287P-S322T-N388M-E421V-C430N-L432F-L434W-S436N-H461T-dG462-A463T-Y469A (protein)
chain: B3 chain with I365Q, Y469A
B7: I283T-P284D-i284aP-N287P-L289R-S322T-N388M-E421V-C430N-L432F-L434W-S436N-H461T-dG462-A463T (protein)
chain: B3 chain with L289R, I365Q
B8: I283T-P284D-i284aP-N287P-S322T-N388M-E421V-C430N-L432F-L434W-S436N-C437F-G448E-H461T-dG462-A463T (protein)
chain: B3 chain with I365Q, C437F, G448E
B9: I283T-P284D-i284aP-N287P-S322T-H384L-N388M-E421V-C430N-L432F-L434W-S436N-H461T-dG462-A463T (protein)
chain: B3 chain with I365Q, H384L
B10: I283T-P284D-i284aP-N287P-S322T-H384G-N388M-E421V-C430N-L432F-L434W-S436N-H461T-dG462-A463T (protein)
chain: B3 chain with I365Q, H384G
B11: I283T-P284D-i284aP-N287P-S322T-N388M-E421V-C430N-I431M-L432F-L434W-S436N-H461T-dG462-A463T (protein)
chain: B3 chain with I365Q, I431M
B12: I283T-P284D-i284aP-N287P-S322T-Q385G-N388M-E421V-C430N-L432F-L434W-S436N-H461T-dG462-A463T (protein)
chain: B3 chain with I365Q, Q385G
B13: V272R-I283T-P284D-i284aP-N287P-S322T-N388M-E421V-C430N-L432F-L434W-S436N-H461T-dG462-A463T (protein)
chain: B3 chain with V272R, I365Q
B14: I283T-P284D-i284aP-N287P-S322T-N388M-E421V-C430N-L432F-L434W-S436N-C437F-H461T-dG462-A463T (protein)
chain: B3 chain with I365Q, C437F
B15: I283T-P284D-i284aP-E286A-N287P-S322T-N388M-E421V-C430N-L432F-L434W-S436N-H461T-dG462-A463T (protein)
chain: B3 chain with E286A, I365Q
B16: I283T-P284D-i284aP-N287P-S322T-N388M-E421V-C430N-L432F-L434W-S436N-C437G-H461T-dG462-A463T (protein)
chain: B3 chain with I365Q, C437G
B17: V272L-I283T-P284D-i284aP-N287P-S322T-N388M-E421V-C430N-L432F-L434W-S436N-H461T-dG462-A463T (protein)
chain: B3 chain with V272L, I365Q
B18: I283T-P284D-i284aP-N287P-S322T-N388M-E421V-C430N-L432F-L434W-S436N-G448V-H461T-dG462-A463T (protein)
chain: B3 chain with I365Q, G448V
B19: I283T-P284D-i284aP-N287P-S322T-N388M-E421V-C430N-L432F-L434W-S436N-G448C-H461T-dG462-A463T (protein)
chain: B3 chain with I365Q, G448C
B20: V272I-I283T-P284D-i284aP-N287P-S322T-N388M-E421V-C430N-L432F-L434W-S436N-H461T-dG462-A463T (protein)
chain: B3 chain with V272I, I365Q
B21: I283T-P284D-i284aP-N287P-S322T-Q385L-N388M-E421V-C430N-L432F-L434W-S436N-H461T-dG462-A463T (protein)
chain: B3 chain with I365Q, Q385L
B22: R15L-I283T-P284D-i284aP-N287P-S322T-K378M-N388M-E421V-C430N-L432F-L434W-S436N-H461T-dG462-A463T (protein)
chain: B3 chain with R15L, I365Q, K378M
B23: I283T-P284D-i284aP-E286S-N287P-S322T-N388M-E421V-C430N-L432F-L434W-S436N-H461T-dG462-A463T (protein)
chain: B3 chain with E286S, I365Q
B24: I283T-P284D-i284aP-N287P-S322T-Q385S-N388M-E421V-C430N-L432F-L434W-S436N-H461T-dG462-A463T (protein)
chain: B3 chain with I365Q, Q385S
B25: I283T-P284D-i284aP-N287P-S322T-N388M-E421V-C430N-L432F-L434W-S436N-H461T-dG462-A463T-Y469H (protein)
chain: B3 chain with I365Q, Y469H
B26: I283T-P284D-i284aP-N287P-S322T-N388M-E421V-C430N-L432F-L434W-S436N-H461T-dG462-A463T-D468L (protein)
chain: B3 chain with I365Q, D468L
B27: I283T-P284D-i284aP-N287P-S322T-N388M-E421V-C430N-L432F-L434W-S436N-H461T-G462R-i462aA-A463T (protein)
chain: B3 chain with I365Q, G462R

What follows are molecules tested on 3-methylcrotonic acid.
Assay type: biochemical, Yersinia frederiksenii
Set-up: key: “+” representing a low increase in activity; “++++” representing a high increase in activity

Molecule	Activity relative to WT
B1	++++
B2	++++
B3	++++
B4	++++
B5	++++
B6	++++
B7	++++
B8	++++
B9	++++
B10	++++
B11	++++
B12	++++
B13	++++
B14	++++
B15	++++
B16	++++
B17	++++
B18	++++
B19	++++
B20	++++
B21	++++
B22	++++
B23	++++
B24	++++
B25	++++
B26	++++
B27	++++

Reference: patent US20250327097A1, “ORGANISMS PRODUCING LESS CROTONIC ACID” (Global Bioenergies, priority 2021, published 2025)
